Laboratory results as given in patent US10357549B2, “Pigment epithelium-derived factor (PEDF) and peptide derivatives thereof for use in osteoblast differentiation and bone growth” (Yale University, priority 2014, dated 2019).
Blank lines part the entries; values can stand above or below the molecule they belong to.

Legend:
β-catenin = experiment: Active β-catenin and mature osteoblast gene expression in hMSC cultures with Wnt3a and PEDF peptides; format: cell-based, human
Experimental: Experiments were conducted to evaluate the effect of Wnt3a and PEDF-derived peptides on β-catenin, a transcriptional regulator of osteoblast differentiation. Cultures incubated in 50 ng/ml Wnt3a alone or in combination with 100 nM PEDF-derived peptides.

[1] = test system: MSCs derived from stromovascular cells (SVCs); experiment: Adipogenic differentiation of murine MSCs derived from stromovascular cells (Oil Red O, qRT-PCR); format: cell-based, mouse
Experimental: (§1) Subcutaneous fat pads were dissected from WT and PEDF-KO mice and digested in HBSS medium containing 3% BSA (American Bioanalytical, Natick, Mass., USA), 0.8 mg/ml of type 2 collagenase (Worthington Biochemical Corp., Lakewood, N.J., USA), 1.2 mM CaCl2, and 1.0 mM MgCl2 for 1 h and 15 min in a shaking 37° C. water bath. Stromovascular fractions (SVFs) were obtained after centrifugation at 300 g for 5 min. Cells were initially plated in proliferation medium (DMEM plus 10% FBS and bFGF; 1 ng/ml) until 70-80% confluence. Adipogenic differentiation was initiated with differentiation medium (5 μg/ml insulin, 10 nM dexamethasone, 0.5 mM IBMX, and 1 μM rosiglitazone) and added on d 0 for 72 h. Afterward, cells were maintained in DMEM with 10% FBS and 5 μg/ml insulin for an additional 5 d until full differentiation as confirmed by light microscopy and Oil Red O staining. Osteoblast differentiation cocktail (10 nM dexamethasone, 50 μg/ml ascorbic acid, and 10 mM β-glycerophosphate) was used for 21 d.
(§2) RNA was isolated and processed using the RNAEasy mini kit (Qiagen, Valencia, Calif., USA). Primer probe sets were obtained from a commercial source (Applied Biosystems, Foster City, Calif., USA), and qRT-PCR was performed on a TaqMan ABI 7500 system (Applied Biosystems) as described previously (Schmitz et al., 2011, Am J Pathol, 179: 2990-2999). Target gene expression was normalized against 18S ribosomal RNA using the ΔΔCt method. On sorted adipose populations, qRT-PCR was performed on a Roche Lightcycler 480 (Roche, Basel, Switzerland) using a SYBR FAST qPCR kit (Kapa Biosystems, Woburn, Mass., USA; KK4611), and target gene expression was normalized to TBK1.
(§3) For Oil Red O staining, cells were washed in PBS and fixed in 10% formalin for 20 min. Cells were then stained with 0.5% Oil Red O for 15 min. For Alizarin Red staining, cells were washed in PBS and fixed in 10% formalin for 20 min. After being washed twice in ddH2O, cells were stained in 2% Alizarin Red S (pH 4.1). Cells were washed ≥3 times in ddH2O, and images were acquired with a Zeiss Axiophot microscope (Carl Zeiss, Oberkochen, Germany). Representative images are shown at ×40 view.

[2] = test system: Wnt cell surface receptor LRP6; experiment: Canonical Wnt-β-catenin signaling in hMSCs (immunoblot of phospho-LRP6 and active β-catenin); format: cell-based, human; settings: for LRP6 phosphorylation: hMSCs, Wnt3a 50 ng/ml, PEDF 500 ng/ml
Experimental: The inhibitor of Wnt production (IWP-2; Tocris Bioscience, Minneapolis, Minn., USA; 2 μM×24-48 h) was used to block production of endogenous Wnt proteins (Chen et al., 2009, Nat Chem Biol, 5: 100-107; Clevers et al., 2012, Cell, 149: 1192-1205). All other chemicals, unless indicated, were purchased from Sigma (St. Louis, Mo., USA).
(§4) Adipose-derived hMSCs [American Type Culture Collection (ATCC), Manasses, Va., USA; PCS-500-011) were propagated in MSC basal medium supplemented with MSC growth kit (ATCC). Cells were CD29, CD44, CD105, and CD166 positive and negative for CD 31, CD34, and CD45. Interrogation of Wnt-β-catenin signaling was done in ATCC MSC basal medium with 2% FBS. PEDF (500 ng/ml) was added for 6 h. Passage 2 and 3 hMSCs were used for Wnt signaling experiments. For adipocyte conversion, cells (5000 cells/cm^2) were placed in adipocyte differentiation medium (ATCC; PCS-500-050) for 9-10 d. For osteoblast differentiation, cells (5000 cells/cm^2) were differentiated in osteoblast differentiation medium (ATCC; PCS-500-052) for 10-21 d. Alkaline phosphatase kit (Sigma) was used to stain osteoblasts.
(§5) Immunoblotting was performed as described previously (Schmitz et al., 2011, Am J Pathol, 179: 2990-2999). Proteins were separated by 10% SDS-PAGE on gradient gels (Bio-Rad, Hercules, Calif., USA). Antibodies against nonphosphorylated β-catenin, total β-catenin, phospho-LRP6 (serine 1490), total LRP6 (Cell Signaling Technologies, Danvers, Mass., USA), and alkaline phosphatase (Developmental Studies Hybridoma Bank, University of Iowa, Iowa City, Iowa, USA). To assess signaling through the Wnt coreceptor LRP6, 3T3 adipocyte precursors with vector and LRP6-KO shRNA were used (Liu et al., 2012, J Biol Chem, 287: 7213-7223). On confluence, cells were serum starved for 48 h, and then changed to DMEM with 10% FCS (d 0). PEDF (10 nM) was added on d 0, and cells were harvested after 48 h. Knockdown was confirmed by immunoblotting for total LRP6. β-actin (Sigma) was used as a loading control.

[3] = test system: 3T3-L1 adipocyte precursors; experiment: PPARγ expression in 3T3-L1 adipocyte precursors with vector or LRP6 shRNA; format: cell-based, mouse; settings: PEDF 10 nM, 48 h
Experimental: as §5

PEDF knock-out mice = experiment: PEDF i.p. treatment of young and old PEDF KO mice, trabecular bone; format: in vivo, mouse; settings: young (200 ng i.p. every third day, two weeks) and old (25 μg/kg i.p. every third day, 4 weeks) PEDF KO mice
Description: A ScanCo μCT 35 scanner (ScanCo Medical AG, Brüttisellen, Switzerland; Yale Center Core for Musculoskeletal Disorders) was used to assess the distal femur for trabecular and cortical bone morphology from 21-d-old WT and PEDF-KO mice in a blinded manner. Axial, sagittal, and coronal images were obtained at standardized sites, and measures of trabecular and total bone volumes and other parameters of bone density were obtained (Bouxsein et al., 2010, J Bone Miner Res, 25: 1468-1486). For histology, femurs and tibiae of 14- and 26-d-old mice were dissected, cleaned, and fixed in 70% ethanol, then further dehydrated through graded ethanols, cleared in toluene, and embedded in methyl methacrylate (MMA). After polymerization, MMA blocks were removed from the mold, cut to size, sanded, and polished on a Buehler Metasery (Buehler, Lake Bluff, Ill., USA). Longitudinal sections of […] were cut using a Reichert-Jung RM 2165 microtome (Leica Microsystems, Jena, Germany) using a D-profile tungsten carbide knife, mounted on charged slides, and stained with either Goldner's trichrome or Toluidine Blue O (pH 3.7).
Experiments were conducted to examine the effects of PEDF treatment on bone in young (44 days) and old (6 month) PEDF knock-out mice. PEDF (200 ng) was delivered i.p. every third day for two weeks in young mice. […]

hMSCs [4] = experiment: Osteoblast differentiation of hMSCs (alkaline phosphatase); format: cell-based, human; settings: PEDF added to hMSCs
Experimental: as §4
Immunoblotting was performed as described previously (Schmitz et al., 2011, Am J Pathol, 179: 2990-2999). Proteins were separated by 10% SDS-PAGE on gradient gels (Bio-Rad, Hercules, Calif., USA). Antibodies against nonphosphorylated β-catenin, total β-catenin, phospho-LRP6 (serine 1490), total LRP6 (Cell Signaling Technologies, Danvers, Mass., USA), and alkaline phosphatase (Developmental Studies Hybridoma Bank, University of Iowa, Iowa City, Iowa, USA). […]

SVCs from PEDF KO mice = experiment: Osteoblast differentiation and mineralization of PEDF KO SVCs (Alizarin Red, qRT-PCR); format: cell-based, mouse
Experimental: as §1, §2, §3

femurs in PEDF KO mice = experiment: Biomechanical testing of femurs of vehicle and PEDF treated PEDF KO mice; format: in vivo, mouse; settings: versus vehicle
Description: Further experiments were done to compare the biomechanical properties of PEDF-treated and vehicle-treated bones. […] Femur length was not different between vehicle or PEDF-treated groups. PEDF increased bone stiffness, the slope of the load applied to the bone vs displacement of bone. Maximum load was not different in PEDF-treated mice. The deformation of bone after the yield point, a measure of bone ductility increased after PEDF treatment. Displacement of femurs at maximum load and at fracture (Fx) point increased after PEDF treatment, indicating bones that are less brittle with force applied.

hMSCs [5] = experiment: Adipogenic differentiation of human MSCs; format: cell-based; settings: PEDF started on day 0, adipogenic medium 10 days
Experimental: as §4
RNA was isolated and processed using the RNAEasy mini kit (Qiagen, Valencia, Calif., USA). Primer probe sets were obtained from a commercial source (Applied Biosystems, Foster City, Calif., USA), and qRT-PCR was performed on a TaqMan ABI 7500 system (Applied Biosystems) as described previously (Schmitz et al., 2011, Am J Pathol, 179: 2990-2999). Target gene expression was normalized against 18S ribosomal RNA using the ΔΔCt method. […]

hMSCs [6] = experiment: Mineralization of hMSCs under continuous Wnt3a (Alizarin red, 21 days); format: cell-based, human; settings: Wnt3a 50 ng/ml continuous, 21-day-old hMSC cultures
Experimental: Experiments were conducted to evaluate the effect of PEDF-derived peptides on the mineralization of hMSCs. […] For “late” groups, PEDF 34-mer was added only during the last 8 days of the differentiation protocol. Mineralization was assessed by Alizarin red staining (FIG. 14C).

[7] = PEDF started on day 3, both WT and KO SVCs
[8] = PEDF 500 ng/ml added to IWP-2-treated hMSCs
[9] = osteoblast differentiation, KO SVCs, day 21

Molecule: DPFFKVPVNKLAAAVSNFGYDLYRVRSSTSPTTN [PEDF 34-mer, PEDF-derived 34-mer peptide]
- levels of active β-catenin (β-catenin; 100 nM peptide with 50 ng/ml Wnt3a): increases the levels of active β-catenin

- alkaline phosphatase by staining and protein levels (hMSCs [4]): increased alkaline phosphatase
B1: Pigment epithelium-derived factor (protein)
chain: QNPASPPEEGSPDPDSTGALVEEEDPFFKVPVNKLAAAVSNFGYDLYRVRSSTSPTTNVLLSPLSVATALSALSLGAEQRTESIIHRALYYDLISSPDIHGTYKELLDTVTAPQKNLKSASRIVFEKKLRIKSSFVAPLEKSYGTRPRVLTGNPRLDLQEINNWVQAQMKGKLARSTKEIPDEISILLLGVAHFKGQWVTKFDSRKTSLEDFYLDEERTVRVPMMSDPKAVLRYGLDSDLSCKIAQLPLTGSMSIIFFLPLKVTQNLTLIEESLTSEFIHDIDRELKTVQAVLTVPKLKLSYEGEVTKSLQEMKLQSLFDSPDFSKITGKPIKLTQVEHRAGFEWNEDGAGTTPSPGLQPAHLTFPLDYHLNQPFIFVLRDTDTGALLFIGKILDPRGP
notes: Full-length recombinant human PEDF generated in HEK cells; 50-kDa secreted protein of the SERPIN superfamily
- PPARγ suppression, day 1 versus day 3 start ([1]; PEDF 500 ng/ml): greater when PEDF was started on day 1 compared with day 3
- adipogenesis (Oil Red O staining) ([1]; PEDF 500 ng/ml added on day 1 or day 3, assessed day 8): significantly inhibited adipogenesis
- expression of PPARγ, PGC1α, CEBPα and adipocyte marker ADIPOQ ([1]; PEDF 500 ng/ml started on day 1 or day 3): suppression
- inhibition of PGC1α expression [1, 7]: ~50%
- inhibition of PPARγ expression [1, 7]: ~50%
- suppression of PPARγ, adiponectin, and other adipocyte markers ([1]; compared with control-treated cells, P<0.001): ~90%
- LRP6 phosphorylation in IWP-2-treated cells [2, 8]: led to LRP6 phosphorylation
- active β-catenin in IWP-2-treated cells [2, 8]: enhanced levels of active β-catenin
- LRP6 phosphorylation [2]: increased LRP6 phosphorylation
- active β-catenin levels ([2]; medium conditions where endogenous Wnt proteins would be present): only minimal effects
- PPARγ expression in cells with LRP6 knockdown [3]: induced PPARγ expression
- PPARγ expression in control (vector) cells [3]: significantly inhibited PPARγ expression
- trabecular bone volume (BV) (PEDF knock-out mice): increases
- trabecular thickness (PEDF knock-out mice): increases
- Alizarin Red staining (mineralization) (SVCs from PEDF KO mice; PEDF treatment for 21 days, KO SVCs, versus vehicle-treated cells): increased Alizarin Red staining
- Collagen Ia expression (SVCs from PEDF KO mice; day 21 of differentiation): not different
- Runx2 expression (SVCs from PEDF KO mice; day 21 of differentiation): did not affect
- Sp7 expression (SVCs from PEDF KO mice; day 21 of differentiation): did not affect
- reduction of PPARγ expression (SVCs from PEDF KO mice; [9]): ~80%
- transforming growth factor β (TGF-β) expression (SVCs from PEDF KO mice; [9]): reduced the expression
- bone stiffness (slope of load vs displacement) (femurs in PEDF KO mice): increased
- deformation of bone after the yield point (bone ductility) (femurs in PEDF KO mice): increased
- displacement of femurs at fracture (Fx) point (femurs in PEDF KO mice): increased
- displacement of femurs at maximum load (femurs in PEDF KO mice): increased
- femur length (femurs in PEDF KO mice): not different
- flexibility of femurs (femurs in PEDF KO mice): enhances the flexibility
- maximum load (femurs in PEDF KO mice): not different
- adipogenesis of hMSCs (hMSCs [5]): inhibits adipogenesis
- proadipogenic transcription factors in hMSCs (hMSCs [5]): inhibited proadipogenic transcription factors

B2: Wnt3a (protein, UniProt P56704 19-352, looked up)
Protein Wnt-3a: SYPIWWSLAVGPQYSSLGSQPILCASIPGLVPKQLRFCRNYVEIMPSVAEGIKIGIQECQHQFRGRRWNCTTVHDSLAIFGPVLDKATRESAFVHAIASAGVAFAVTRSCAEGTAAICGCSSRHQGSPGKGWKWGGCSEDIEFGGMVSREFADARENRPDARSAMNRHNNEAGRQAIASHMHLKCKCHGLSGSCEVKTCWWSQPDFRAIGDFLKDKYDSASEMVVEKHRESRGWVETLRPRYTYFKVPTERDLVYYEASPNFCEPNPETGSFGTRDRTCNVSSHGIDGCDLLCCGRGHNARAERRREKCRCVFHWCCYVSCQECTRVYDVHTCK
notes: prototypical Wnt agonist ligand
- LRP6 phosphorylation [2]: increased LRP6 phosphorylation
- mineralization (Alizarin red) with continuous Wnt3a versus controls (hMSCs [6]): diminished mineralization
- active β-catenin under unopposed and continuous Wnt3a (β-catenin; 50 ng/ml Wnt3a alone): suppresses active β-catenin
